This experiment addresses purified muscle actin filaments (UniProt P68135 1-377).

We go through one molecule from PMC3681696 (Molecular Biology of the Cell, 2013).

B1: recombinant Rng2p calponin homology domain (domain or fragment)
chain: MDVNVGLSRLQSQAGAPVGTKGSNTRLAAKQRETLQAYDYLCRVDEAKKWIEECLGTDLGPTSTFEQSLRNGVVLALLVQKFQPDKLIKIFYSNELQFRHSDNINKFLDFIHGIGLPEIFHFELTDIYEGKNLPKVIYCIHALSYFLSMQDLAPPLIKSDENLSFTDEDVSIIVRRLRQSNVILPNFKAL
B1 returned a Kd of roughly 20 µM.

By Kd is commonly meant the constant that tells how readily two partners part at equilibrium. A high value points to lower affinity.
